The results in this text go back to the supplement of paper PMC9112550, “Optimization of the antimicrobial peptide Bac7 by deep mutational scanning” (BMC Biology, 2022).
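Also: peptides expressed intracellularly from a pBAD plasmid library in pooled LB shake-flask culture, induced with 0.3% L-arabinose, DNA abundance read by NGS, three biological replicates, DESeq2 with apeglm shrinkage.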

The subject of the series is Escherichia coli TOP10. The experiment in a line: shrunken log2 fold change of peptide-encoding DNA abundance (4.5 h post-induction vs induction); higher = less antimicrobial activity (less host growth inhibition). To be noted: time post-induction: 4.5 h; library: site-saturation at positions 5, 18, 19, 20.
For the sequence RRIRWRPPRLPRPRPRPIHKPRP, the “shrunken log2 fold change” value is -0.0298.

As for RRIRKRPPRLPRPRPRPQPGPRP, the “shrunken log2 fold change” value worked out at 0.406.

As to RRIRRRPPRLPRPRPRPMGEPRP, the “shrunken log2 fold change” value worked out at 0.0186.

For the sequence RRIRMRPPRLPRPRPRPCAAPRP, the “shrunken log2 fold change” value was 2.26.

In the case of RRIRWRPPRLPRPRPRPKQLPRP, the “shrunken log2 fold change” value was -0.0021.

With RRIRNRPPRLPRPRPRPTSCPRP, the “shrunken log2 fold change” value is -0.173.

Regarding RRIRDRPPRLPRPRPRPHNVPRP, the “shrunken log2 fold change” value turned out to be 0.00884.

Turning to RRIRGRPPRLPRPRPRPCWYPRP, the “shrunken log2 fold change” value turned out to be 0.0725.

With RRIRPRPPRLPRPRPRPFNQPRP, the “shrunken log2 fold change” value was -0.695.

RRIRRRPPRLPRPRPRPSVKPRP: the “shrunken log2 fold change” value came to 0.155.

Take RRIRIRPPRLPRPRPRPKIFPRP: the “shrunken log2 fold change” value is 0.27.

For RRIRYRPPRLPRPRPRPICDPRP, the “shrunken log2 fold change” value is -0.269.

With RRIRQRPPRLPRPRPRPGPWPRP, the “shrunken log2 fold change” value came out at 0.479.

With RRIRTRPPRLPRPRPRPPQLPRP, the “shrunken log2 fold change” value turned out to be 0.0198.

In the case of RRIRFRPPRLPRPRPRPAGWPRP, the “shrunken log2 fold change” value is 0.674.

On to RRIRPRPPRLPRPRPRPMTGPRP, for which the “shrunken log2 fold change” value was -0.239.

Consider RRIRQRPPRLPRPRPRPKGYPRP, for which the “shrunken log2 fold change” value was -0.00146.

As to RRIRRRPPRLPRPRPRPNFTPRP, the “shrunken log2 fold change” value turned out to be 0.205.

Turning to RRIRSRPPRLPRPRPRPQTLPRP, the “shrunken log2 fold change” value was -0.119.

In the case of RRIRDRPPRLPRPRPRPPPTPRP, the “shrunken log2 fold change” value is 0.973.

Consider RRIRVRPPRLPRPRPRPMSNPRP, for which the “shrunken log2 fold change” value was found to be 0.0709.

With RRIRGRPPRLPRPRPRPICMPRP, the “shrunken log2 fold change” value came to 0.454.

Turning to RRIRYRPPRLPRPRPRPVWCPRP, the “shrunken log2 fold change” value is -0.0399.

For the sequence RRIRCRPPRLPRPRPRPRPKPRP, the “shrunken log2 fold change” value worked out at 0.901.

RRIRSRPPRLPRPRPRPSQHPRP: the “shrunken log2 fold change” value is -0.24.

Consider RRIRSRPPRLPRPRPRPCWMPRP, for which the “shrunken log2 fold change” value is -0.0635.

Turning to RRIRHRPPRLPRPRPRPANWPRP, the “shrunken log2 fold change” value turned out to be 0.135.

For RRIRHRPPRLPRPRPRPCKQPRP, the “shrunken log2 fold change” value was -0.0199.

As for RRIRHRPPRLPRPRPRPFPSPRP, the “shrunken log2 fold change” value stood at 0.0517.

Turning to RRIRKRPPRLPRPRPRPWEFPRP, the “shrunken log2 fold change” value was found to be 0.504.

Regarding RRIRPRPPRLPRPRPRPWKVPRP, the “shrunken log2 fold change” value was -0.0967.

RRIRKRPPRLPRPRPRPKKTPRP: the “shrunken log2 fold change” value stood at 0.0396.

Take RRIRQRPPRLPRPRPRPCHYPRP: the “shrunken log2 fold change” value was -0.000921.

Turning to RRIRHRPPRLPRPRPRPCLKPRP, the “shrunken log2 fold change” value was -0.16.

RRIRGRPPRLPRPRPRPKKAPRP: the “shrunken log2 fold change” value was -0.0191.

Take RRIRSRPPRLPRPRPRPQQPPRP: the “shrunken log2 fold change” value is -0.273.

With RRIRARPPRLPRPRPRPLKGPRP, the “shrunken log2 fold change” value was found to be 0.052.

As to RRIRARPPRLPRPRPRPMNPPRP, the “shrunken log2 fold change” value is -0.0638.

Regarding RRIRARPPRLPRPRPRPCHTPRP, the “shrunken log2 fold change” value was determined as 0.0762.

On to RRIRHRPPRLPRPRPRPMPGPRP, for which the “shrunken log2 fold change” value was -0.0235.

As for RRIRARPPRLPRPRPRPKDPPRP, the “shrunken log2 fold change” value is 0.211.

Take RRIRDRPPRLPRPRPRPFAPPRP: the “shrunken log2 fold change” value worked out at 0.318.

For RRIRERPPRLPRPRPRPCRDPRP, the “shrunken log2 fold change” value is 0.0284.

With RRIRSRPPRLPRPRPRPCLLPRP, the “shrunken log2 fold change” value is -0.284.

As for RRIRHRPPRLPRPRPRPKNTPRP, the “shrunken log2 fold change” value is -0.497.

Take RRIRFRPPRLPRPRPRPFYEPRP: the “shrunken log2 fold change” value is -0.886.

Take RRIRYRPPRLPRPRPRPYQSPRP: the “shrunken log2 fold change” value turned out to be 0.0169.

As to RRIRTRPPRLPRPRPRPWIGPRP, the “shrunken log2 fold change” value was -0.233.

Regarding RRIRLRPPRLPRPRPRPKSCPRP, the “shrunken log2 fold change” value came out at 0.0755.

Turning to RRIRTRPPRLPRPRPRPMCCPRP, the “shrunken log2 fold change” value was -0.182.

For RRIRLRPPRLPRPRPRPSIVPRP, the “shrunken log2 fold change” value is -0.294.

In the case of RRIRQRPPRLPRPRPRPGPEPRP, the “shrunken log2 fold change” value worked out at 0.0674.

Consider RRIRFRPPRLPRPRPRPLQWPRP, for which the “shrunken log2 fold change” value was -0.0201.

Take RRIRHRPPRLPRPRPRPPRAPRP: the “shrunken log2 fold change” value worked out at 0.667.

As to RRIRGRPPRLPRPRPRPWKVPRP, the “shrunken log2 fold change” value is -0.00197.

As to RRIRDRPPRLPRPRPRPQTFPRP, the “shrunken log2 fold change” value stood at 0.0361.

For RRIRDRPPRLPRPRPRPKQWPRP, the “shrunken log2 fold change” value worked out at 0.109.

As to RRIRARPPRLPRPRPRPGIWPRP, the “shrunken log2 fold change” value amounted to 0.168.

For RRIRCRPPRLPRPRPRPCMKPRP, the “shrunken log2 fold change” value was -0.368.

Turning to RRIRPRPPRLPRPRPRPICGPRP, the “shrunken log2 fold change” value was 0.103.

RRIRTRPPRLPRPRPRPNDLPRP: the “shrunken log2 fold change” value was -0.354.

With RRIRTRPPRLPRPRPRPTTFPRP, the “shrunken log2 fold change” value is -0.012.

Regarding RRIRRRPPRLPRPRPRPVYSPRP, the “shrunken log2 fold change” value is -0.139.

Turning to RRIRARPPRLPRPRPRPGADPRP, the “shrunken log2 fold change” value is 0.832.

With RRIRYRPPRLPRPRPRPNGLPRP, the “shrunken log2 fold change” value is -0.0845.

As for RRIRVRPPRLPRPRPRPNEKPRP, the “shrunken log2 fold change” value was -0.0575.

As for RRIRNRPPRLPRPRPRPETCPRP, the “shrunken log2 fold change” value was found to be 0.262.

Regarding RRIRQRPPRLPRPRPRPAWPPRP, the “shrunken log2 fold change” value was 0.303.

With RRIRLRPPRLPRPRPRPDEWPRP, the “shrunken log2 fold change” value is -0.0118.

For the sequence RRIRERPPRLPRPRPRPVQAPRP, the “shrunken log2 fold change” value came out at 0.014.

For RRIRQRPPRLPRPRPRPTFQPRP, the “shrunken log2 fold change” value amounted to 0.00826.

As to RRIRTRPPRLPRPRPRPQAMPRP, the “shrunken log2 fold change” value is 0.00573.

As for RRIRMRPPRLPRPRPRPATVPRP, the “shrunken log2 fold change” value was 0.323.

For RRIRCRPPRLPRPRPRPVMLPRP, the “shrunken log2 fold change” value is -0.433.

In the case of RRIRFRPPRLPRPRPRPCEWPRP, the “shrunken log2 fold change” value is 0.134.

Consider RRIRRRPPRLPRPRPRPRSSPRP, for which the “shrunken log2 fold change” value amounted to 0.0954.

Turning to RRIRERPPRLPRPRPRPEDFPRP, the “shrunken log2 fold change” value amounted to 0.089.

RRIRRRPPRLPRPRPRPDTKPRP: the “shrunken log2 fold change” value was -0.139.

RRIRCRPPRLPRPRPRPTDWPRP: the “shrunken log2 fold change” value was found to be 0.169.

Regarding RRIRPRPPRLPRPRPRPTHNPRP, the “shrunken log2 fold change” value turned out to be 0.199.

In the case of RRIRCRPPRLPRPRPRPTNHPRP, the “shrunken log2 fold change” value is -0.573.

For RRIRFRPPRLPRPRPRPMKVPRP, the “shrunken log2 fold change” value was -0.344.

Turning to RRIRERPPRLPRPRPRPPKHPRP, the “shrunken log2 fold change” value was -0.0654.

Turning to RRIRKRPPRLPRPRPRPWAVPRP, the “shrunken log2 fold change” value is 0.192.

For RRIRQRPPRLPRPRPRPDLHPRP, the “shrunken log2 fold change” value turned out to be 0.00152.

For RRIRTRPPRLPRPRPRPNWGPRP, the “shrunken log2 fold change” value was -0.0445.

RRIRIRPPRLPRPRPRPFSWPRP: the “shrunken log2 fold change” value worked out at 0.0705.

As for RRIRQRPPRLPRPRPRPRHLPRP, the “shrunken log2 fold change” value is -0.33.

Take RRIRNRPPRLPRPRPRPQSWPRP: the “shrunken log2 fold change” value was -0.0543.

For the sequence RRIRCRPPRLPRPRPRPEEVPRP, the “shrunken log2 fold change” value amounted to 0.362.

As for RRIRHRPPRLPRPRPRPATDPRP, the “shrunken log2 fold change” value is -0.185.

As for RRIRGRPPRLPRPRPRPWRFPRP, the “shrunken log2 fold change” value was found to be 0.425.

Turning to RRIRLRPPRLPRPRPRPANFPRP, the “shrunken log2 fold change” value came out at 0.0302.

On to RRIRDRPPRLPRPRPRPHCRPRP, for which the “shrunken log2 fold change” value was -0.123.

RRIRQRPPRLPRPRPRPSADPRP: the “shrunken log2 fold change” value was 0.354.

With RRIRPRPPRLPRPRPRPFLTPRP, the “shrunken log2 fold change” value was -0.254.

Regarding RRIRSRPPRLPRPRPRPYDQPRP, the “shrunken log2 fold change” value was -0.21.

In the case of RRIRYRPPRLPRPRPRPNMVPRP, the “shrunken log2 fold change” value is -0.0169.

RRIRCRPPRLPRPRPRPNEFPRP: the “shrunken log2 fold change” value turned out to be 0.159.

On to RRIRKRPPRLPRPRPRPSRTPRP, for which the “shrunken log2 fold change” value amounted to 0.391.

For RRIRVRPPRLPRPRPRPDMQPRP, the “shrunken log2 fold change” value is -0.081.

In the case of RRIRQRPPRLPRPRPRPMVAPRP, the “shrunken log2 fold change” value is 0.143.

For RRIRNRPPRLPRPRPRPDDDPRP, the “shrunken log2 fold change” value was -0.153.

Regarding RRIRFRPPRLPRPRPRPVAQPRP, the “shrunken log2 fold change” value came to 0.0899.

Regarding RRIRMRPPRLPRPRPRPQCVPRP, the “shrunken log2 fold change” value came to 0.039.

Turning to RRIRSRPPRLPRPRPRPVNRPRP, the “shrunken log2 fold change” value was -0.107.

Consider RRIRWRPPRLPRPRPRPPTLPRP, for which the “shrunken log2 fold change” value is 0.315.

Regarding RRIRTRPPRLPRPRPRPNIPPRP, the “shrunken log2 fold change” value was -0.593.

Regarding RRIRSRPPRLPRPRPRPKAWPRP, the “shrunken log2 fold change” value was determined as 0.148.

For the sequence RRIRTRPPRLPRPRPRPWRDPRP, the “shrunken log2 fold change” value was found to be 0.00299.

For RRIRARPPRLPRPRPRPFTHPRP, the “shrunken log2 fold change” value is -0.113.

In the case of RRIRPRPPRLPRPRPRPGVFPRP, the “shrunken log2 fold change” value amounted to 0.144.

As to RRIRHRPPRLPRPRPRPHARPRP, the “shrunken log2 fold change” value came to 0.0947.

On to RRIRARPPRLPRPRPRPDEHPRP, for which the “shrunken log2 fold change” value worked out at 0.54.

As for RRIRQRPPRLPRPRPRPNIIPRP, the “shrunken log2 fold change” value is -0.247.

As to RRIRERPPRLPRPRPRPGEHPRP, the “shrunken log2 fold change” value stood at 0.0251.

RRIRMRPPRLPRPRPRPEEAPRP: the “shrunken log2 fold change” value amounted to 3.94.

With RRIRDRPPRLPRPRPRPGILPRP, the “shrunken log2 fold change” value was -0.197.

As for RRIRKRPPRLPRPRPRPIEMPRP, the “shrunken log2 fold change” value is -0.202.

Turning to RRIRHRPPRLPRPRPRPHRAPRP, the “shrunken log2 fold change” value was found to be 0.0912.

Consider RRIRNRPPRLPRPRPRPCAVPRP, for which the “shrunken log2 fold change” value was -0.273.

RRIRWRPPRLPRPRPRPETMPRP: the “shrunken log2 fold change” value came out at 0.569.

For the sequence RRIRTRPPRLPRPRPRPAFRPRP, the “shrunken log2 fold change” value was -0.125.

Consider RRIRARPPRLPRPRPRPWKWPRP, for which the “shrunken log2 fold change” value was -0.163.

Consider RRIRMRPPRLPRPRPRPLELPRP, for which the “shrunken log2 fold change” value is 0.337.
